Experimental data: paper PMC10058238, “Mechanism of sphingolipid homeostasis revealed by structural analysis of Arabidopsis SPT-ORM1 complex” (Science Advances, 2023)
Changes are numbered by the printed parent chain. Names may count otherwise.

T1: Arabidopsis SPT complex (LCB1, LCB2a, SPTssa) (Arabidopsis, UniProt Q94IB8 1-482; Q9LSZ9 1-489; A8MSB8 1-56)
T1 sequence 1: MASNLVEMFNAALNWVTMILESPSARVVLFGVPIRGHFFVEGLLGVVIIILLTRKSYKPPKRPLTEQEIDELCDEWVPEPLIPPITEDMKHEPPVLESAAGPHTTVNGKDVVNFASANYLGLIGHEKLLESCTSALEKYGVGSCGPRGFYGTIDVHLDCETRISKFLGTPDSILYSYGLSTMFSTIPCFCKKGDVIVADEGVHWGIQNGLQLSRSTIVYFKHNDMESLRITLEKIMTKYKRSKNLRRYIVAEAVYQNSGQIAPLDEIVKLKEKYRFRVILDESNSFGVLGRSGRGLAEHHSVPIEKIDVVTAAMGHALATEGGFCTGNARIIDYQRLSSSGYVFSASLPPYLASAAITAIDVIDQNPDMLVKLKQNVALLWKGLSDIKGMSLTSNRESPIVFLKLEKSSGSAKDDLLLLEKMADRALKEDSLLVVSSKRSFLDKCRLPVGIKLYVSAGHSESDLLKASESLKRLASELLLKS
T1 sequence 2: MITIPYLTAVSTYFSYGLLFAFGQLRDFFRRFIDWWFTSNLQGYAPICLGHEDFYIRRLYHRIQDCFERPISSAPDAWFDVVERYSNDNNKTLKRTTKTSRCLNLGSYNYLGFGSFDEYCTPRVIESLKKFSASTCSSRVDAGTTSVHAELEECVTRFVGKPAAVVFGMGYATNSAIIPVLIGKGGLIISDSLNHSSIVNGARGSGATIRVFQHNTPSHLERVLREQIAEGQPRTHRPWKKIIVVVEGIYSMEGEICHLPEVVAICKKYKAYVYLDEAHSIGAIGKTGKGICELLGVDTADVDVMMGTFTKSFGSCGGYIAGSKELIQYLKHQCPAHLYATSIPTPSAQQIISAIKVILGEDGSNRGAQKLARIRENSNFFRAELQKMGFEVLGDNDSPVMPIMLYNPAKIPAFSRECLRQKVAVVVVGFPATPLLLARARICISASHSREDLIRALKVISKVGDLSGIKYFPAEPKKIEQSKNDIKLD
T1 sequence 3: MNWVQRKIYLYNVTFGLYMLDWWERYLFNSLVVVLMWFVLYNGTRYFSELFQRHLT

T2: Flag-tagged Arabidopsis SPTssa (Arabidopsis, UniProt A8MSB8 1-56)
T2 construct: SPTssa, small subunit of serine palmitoyltransferase, Arabidopsis; codon-optimized cDNA in pCAG; residues 1 to 48 are in the atomic model; The only tagged subunit; bait of every purification; also called Flag-SPTssa; Flag-AtSPTssa; source: HEK293F, transiently cotransfected with the other subunits, purified as a complex (anti-Flag resin, Superose 6) in GDN; not shown: Flag, N-terminal, kept
T2 sequence: T1 sequence 3

T3: Arabidopsis LCB2a-ΔN5 (Arabidopsis, UniProt Q9LSZ9 1-489, LCB2a-ΔN5 (deletion of residues 2 to 5))
T3 construct: LCB2a, Arabidopsis, with residues 2 to 5 deleted; also called LCB2a-ΔN5 variant
T3 sequence: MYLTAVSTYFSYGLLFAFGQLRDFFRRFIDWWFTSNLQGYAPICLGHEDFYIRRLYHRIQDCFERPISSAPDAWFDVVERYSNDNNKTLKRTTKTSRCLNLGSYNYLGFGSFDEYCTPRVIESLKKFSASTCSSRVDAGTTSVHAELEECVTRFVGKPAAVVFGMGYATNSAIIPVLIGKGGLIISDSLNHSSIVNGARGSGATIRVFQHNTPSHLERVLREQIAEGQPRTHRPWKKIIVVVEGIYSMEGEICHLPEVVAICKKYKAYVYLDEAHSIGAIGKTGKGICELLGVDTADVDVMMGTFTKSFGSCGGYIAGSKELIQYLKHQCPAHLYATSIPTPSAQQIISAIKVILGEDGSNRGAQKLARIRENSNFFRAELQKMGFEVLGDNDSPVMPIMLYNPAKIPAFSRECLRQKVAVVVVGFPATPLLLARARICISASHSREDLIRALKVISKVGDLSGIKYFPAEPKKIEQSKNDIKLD

B1: Arabidopsis ORM1 (natural protein)
chain: MANLYVKAVPPPDMNRNTEWFMYPGVWTTYMLILFFGWLVVLSVSGCSPGMAWTVVNLAHFVVTYHSFHWMKGTPFADDQGIYNGLTWWEQMDNGQQLTRNRKFLTLVPVVLYLIASHTTDYRHPWLFLNTLAVMVLVVAKFPNMHKVRIFGINGDK
notes: ORM1, Arabidopsis; codon-optimized cDNA in pCAG without a tag; residues 1 to 156 are in the atomic model; also called AtORM1; WT ORM1
B2: Arabidopsis SPT-ORM1 complex (LCB1, LCB2a, SPTssa, ORM1) (complex)
chain 1: T1 sequence 1
chain 2: T1 sequence 2
chain 3: T1 sequence 3
chain 4: B1 chain
modifications: pyridoxal 5'-phosphate covalently linked to the ε-amino group of Lys311 (internal aldimine)
notes: LCB1, Arabidopsis; as m1; LCB2a, Arabidopsis; as m2; SPTssa, Arabidopsis; as m3; ORM1, Arabidopsis; as m4; One protomer (1:1:1:1) of the dimer seen by cryo-EM; an endogenous ceramide copurifies between ORM1 and LCB2a; also called AtSPT-ORM1; WT SPT-ORM1 complex; source: HEK293F, transiently cotransfected (LCB1:LCB2a:ORM1:SPTssa = 3:3:3:1), purified (anti-Flag resin, Superose 6) in GDN; not shown: …
B3: Arabidopsis ORM1-N17A (natural protein)
chain: B1 chain with N17A
notes: ORM1, Arabidopsis, with N17A; residues 1 to 11 almost invisible in the map; also called ORM1-N17A variant
B4: Arabidopsis LCB2a (natural protein)
chain: T1 sequence 2
modifications: pyridoxal 5'-phosphate covalently linked to the ε-amino group of Lys311 (internal aldimine)
notes: LCB2a, subunit of serine palmitoyltransferase, Arabidopsis; codon-optimized cDNA in pCAG without a tag; residues 1 to 36 and 41 to 475 are in the atomic model; The sentence on the PLP link prints 'LCB2b'; the construct is LCB2a; also called AtLCB2a; source: HEK293F, transiently cotransfected with the other subunits, purified as a complex (anti-Flag resin, Superose 6) in GDN
B5: Arabidopsis LCB1 (natural protein, UniProt Q94IB8 1-482, looked up)
chain: T1 sequence 1
notes: LCB1, subunit of serine palmitoyltransferase, Arabidopsis; codon-optimized cDNA in pCAG without a tag; residues 36 to 480 are in the atomic model; also called AtLCB1; source: HEK293F, transiently cotransfected with the other subunits, purified as a complex (anti-Flag resin, Superose 6) in GDN

Legend:
[1] = target: T1, Arabidopsis SPT complex (LCB1, LCB2a, …); assay: cell-based or functional assay
[2] = target: B4; assay: cryo-EM structure; single-particle cryo-EM of the coexpressed, purified complexes (WT, ORM1-N17A, LCB2a-ΔN5) at ~18 mg/ml in 25 mM Hepes pH 7.5, 150 mM NaCl, 0.01% GDN; the LCB2a-ΔN5 sample preincubated with 0.5 mM PLP, 10 mM L-serine and 1 mM S-CoA; conditions: both partners purified
[3] = target: T2, Flag-tagged Arabidopsis SPTssa; assay: as above; conditions: both partners purified
[4] = target: T3, Arabidopsis LCB2a-ΔN5; assay: as above; conditions: both partners purified
[5] = target: the molecule itself; assay: as above

Row | Binder | binding result [2] | stoichiometry N [3] | also measured
1 | B1 | binds | 1 | specific SPT activity of the purified SPT-ORM1 complex at saturating conditions, relative to the SPT complex [1]: ~50%; binding result [4]: binds
2 | B2 |  |  | stoichiometry N [5]: 2
3 | B3 | binds |  | 
4 | B4 |  | 1 | 
5 | B5 |  | 1 | 
